Paper PMC11079029, “Intramolecular autoinhibition regulates the selectivity of PRPF40A tandem WW domains for proline-rich motifs” (Nature Communications, 2024)
Read-outs that look alike come from different tables or passages of the source.

Biological target: T1, PRPF40A WW12 (tandem WW domains, residues 141–236) (Homo sapiens, UniProt O75400)
T1 construct: WW12 141–236, WW12long 141–248, and N-ext-WW12 56–236; 6xHis-TEV site (N, cleaved yes); made in house; host or cells: Escherichia coli BL21(DE3)
T1 sequence (O75400 141-236): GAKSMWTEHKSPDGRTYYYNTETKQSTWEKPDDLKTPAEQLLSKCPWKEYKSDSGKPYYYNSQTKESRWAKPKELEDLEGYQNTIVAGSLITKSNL
Assay: ITC of PRPF40A WW12 with GB1-tagged proline-rich peptides and constructs
Format: binding
Conditions: for DH: ITC binding enthalpy, as E4; for Kd: ITC as E4, read-out: Kd (mM), Individual values
Text: PRPF40A isoform 1 sequences (N-ter 1–310, WW12short 141–223, WW12 141–236, WW12long 141–248, and N-ext-WW12 56–236) were amplified from a purchased DNA fragment (IDT) and cloned using NcoI and KpnI restriction sites into a pETM11 vector encoding 6xHis and TEV cleavage site as a N-terminal tag. SF1 (Pro A 410–468, Pro B 468–539, Pro C 539–594, Pro D 594–639, Pro BC 468–594, Pro CD 539–639, Pro BCD 468–639 and Pro ABCD 410–639) and SF3A1 (Middle Pro 364–413 and C-ter Pro 552–683) constructs were prepared in a similar manner using a pET24 vector with a 6xHis, GB1 and TEV cleavage site as N-terminal fusion cassette. 16-mer SF1 constructs (Table 1) and polyproline peptides (P6, P8, P10, P13, P16, P19, P22, P25, and P29) were cloned in the same pET24 vector with GB1 tag by direct ligation of purchased oligonucleotides (Eurofins). All peptide sequences contained N and C-terminal common residues to avoid boundary effects on binding: TEVsite-GAMSGS-peptide-SGSN. Mutants of PRPF40A WW12 and N-ext-WW12 constructs were prepared by site-directed mutagenesis. The truncated version of PRPF40A WW12 (141-217) was a gift from Dr. María Macías (IRB, Spain). All used oligonucleotides were purchased from Eurofins Genomics and are shown in Supplementary Table 6.
Resuspended cell pellets in 20 mM Tris pH 8.0, 500 mM NaCl, 10 mM imidazole, 0.5 mM TCEP, and protease inhibitors mix (SERVA) were lysed by cell disruption in a French press. Clear lysates, after centrifugation (at 18,000 g) and filtering, were loaded into Ni-NTA resin. The resin was then washed with 20 mM imidazole containing buffer, and the desired protein was eluted with 500 mM imidazole. PRPF40A constructs were then subjected to TEV protease treatment (homemade at a final concentration of ≈50 μg/ml), dialyzed overnight at 4 °C against an imidazole-free buffer, and then loaded again to Ni-NTA resin; desired digested proteins were obtained in the flow-through and wash fractions while uncleaved protein, TEV protease, and impurities remained bound to the resin. Cleaved PRPF40A proteins and GB1-tagged SF1, SF3A1, and polyproline constructs were further purified by size-exclusion chromatography on a HiLoad 16/60 Superdex 75 column (GE Healthcare) equilibrated with 20 mM sodium phosphate, pH 6.5, 100 mM NaCl and 1 mM DTT buffer. For the purification of PRPF40A WW12 in complex with SF1 peptide, cell pellets of recombinant expression for both proteins were mixed and processed together following the Ni-NTA—TEV digestion—reverse Ni-NTA—SEC-75 protocol; where the complex remained bound in a 1:1 stoichiometry throughout the whole purification (corroborated by NMR). Molecular weight of each sample was confirmed by mass spectrometry, purity was checked by PAGE-SDS, and protein concentrations were determined from the aromatic contribution to the UV absorbance spectra at 280 nm.
Experiments were conducted on a MicroCAl PEAQ-ITC (Malvern Instruments, UK) at 25 °C in 20 mM sodium phosphate pH 6.5 and 100 mM NaCl. PRPF40A was titrated into N-terminal GB1 tagged SF1 or polyproline constructs and vice versa with similar results. Protein concentrations in the cell were around 20–40 μM, while in the syringe ranged between 200 and 500 μM. Experiments were performed at least in duplicate with injections of 1.5 μL (0.4 μL for first point) separated by 150 s delays to recover thermal power baseline and continuous stirring in the cell (750 rpm) for correct mixing. The reference cell was filled with water in all experiments. Data were processed by removing the blank experiment (using digested GB1 fusion protein) and adjusted to one-site binding model with Malvern PEAQ-ITC Analysis software (Malvern Instruments, UK).

[1] = source data of Fig. 4C,D, individual value 1
[2] = source data of Fig. 4C,D, individual value 2
[3] = source data of Fig. 4C, individual value 3

Molecule	DH	Kd [1]	Kd [2]	Kd [3]
SF1 Pro BCD: GB1-tagged SF1 construct, residues 468–639 (protein, left off: His6, N-terminal, state not stated | GB1, N-terminal, kept) GMMPPPPMGMMPPPPPPPSGQPPPPPSGPLPPWQQQQQQPPPPPPPSSSMASSTPLPWQQNTTTTTTSAGTGSIPPWQQQQAAAAASPGAPQMQGNPTMVPLPPGVQPPLPPGAPPPPPPPPPGSAGMMYAPPPPPPPPMDPSNFVTMMGMGVAGMPPFGMPPAPPPPPPQN	-65.49 ± 8.6 kcal/mol	0.00293 mM	0.00436 mM	–
SF3A1 C-ter Pro: GB1-tagged SF3A1 construct, residues 552–683 (protein, left off: His6, N-terminal, state not stated | GB1, N-terminal, kept) EIPQQPPPPSSATNIPSSAPPITSVPRPPTMPPPVRTTVVSAVPVMPRPPMASVVRLPPGSVIAPMPPIIHAPRINVVPMPPSAPPIMAPRPPPMIVPTAFVPAPPVAPVPAPAPMPPVHPPPPMEDEPTSK	-68.83 ± 18.8 kcal/mol	0.0238 mM	0.0148 mM	–
SF1 Pro B: GB1-tagged SF1 construct, residues 468–539 (protein, left off: His6, N-terminal, state not stated | GB1, N-terminal, kept) GMMPPPPMGMMPPPPPPPSGQPPPPPSGPLPPWQQQQQQPPPPPPPSSSMASSTPLPWQQNTTTTTTSAGTG	-17.3 ± 3.27 kcal/mol	–	–	–
SF1 Pro CD: GB1-tagged SF1 construct, residues 539–639 (protein, left off: His6, N-terminal, state not stated | GB1, N-terminal, kept) GSIPPWQQQQAAAAASPGAPQMQGNPTMVPLPPGVQPPLPPGAPPPPPPPPPGSAGMMYAPPPPPPPPMDPSNFVTMMGMGVAGMPPFGMPPAPPPPPPQN	-46.2 ± 3.11 kcal/mol	0.00283 mM	0.00432 mM	0.00426 mM
SF1 Pro BC: GB1-tagged SF1 construct, residues 468–594 (protein, left off: His6, N-terminal, state not stated | GB1, N-terminal, kept) GMMPPPPMGMMPPPPPPPSGQPPPPPSGPLPPWQQQQQQPPPPPPPSSSMASSTPLPWQQNTTTTTTSAGTGSIPPWQQQQAAAAASPGAPQMQGNPTMVPLPPGVQPPLPPGAPPPPPPPPPGSAG	-28.99 ± 1.65 kcal/mol	0.00363 mM	0.00776 mM	0.00911 mM
SF1 Pro ABCD: GB1-tagged SF1 construct, residues 410–639 (protein, left off: His6, N-terminal, state not stated | GB1, N-terminal, kept) GHPMQHNPNGPPPPWMQPPPPPMNQGPHPPGHHGPPPMDQYLGSTPVGSGVYRLHQGKGMMPPPPMGMMPPPPPPPSGQPPPPPSGPLPPWQQQQQQPPPPPPPSSSMASSTPLPWQQNTTTTTTSAGTGSIPPWQQQQAAAAASPGAPQMQGNPTMVPLPPGVQPPLPPGAPPPPPPPPPGSAGMMYAPPPPPPPPMDPSNFVTMMGMGVAGMPPFGMPPAPPPPPPQN	-67.04 ± 9.68 kcal/mol	0.00541 mM	0.0044 mM	–
